Earlier results, collected in paper PMC4465285.

Experiments:
[1] = target: F-actin (Saccharomyces cerevisiae) (UniProt P60010); assay: fluorescence titration and cosedimentation
[2] = target: F-actin (Oryctolagus cuniculus) (UniProt P68135)

Kd [1] [nM]	Kd [2] [nM]	Substance
16	–	Cofilin-1 (from UniProt P23528)
–	200	Drebrin 1-300 (from UniProt Q16643)
